Reference: patent US20140087995A1 (published 2014)
Numbered stars: 1 amine (or outer) side, 2 acyl side, 3 side chain; on linkers, the order of the positions; unused ones are H or OH. Bridge positions count the residues as written; N and C are the ends. Side chains are listed from the residue outwards. Ends that are not written are not given here. * marks the point of attachment. C20 diacid = O=C(O)CCCCCCCCCCCCCCCCCCC(=O)*; γGlu = O=C(O)[C@H](CCC(=O)[*:2])N[*:1]; AEEA = NCCOCCOCC(=O)O

T1: human calcitonin receptor (human, UniProt P30988 25-474)
T1 sequence (looked up): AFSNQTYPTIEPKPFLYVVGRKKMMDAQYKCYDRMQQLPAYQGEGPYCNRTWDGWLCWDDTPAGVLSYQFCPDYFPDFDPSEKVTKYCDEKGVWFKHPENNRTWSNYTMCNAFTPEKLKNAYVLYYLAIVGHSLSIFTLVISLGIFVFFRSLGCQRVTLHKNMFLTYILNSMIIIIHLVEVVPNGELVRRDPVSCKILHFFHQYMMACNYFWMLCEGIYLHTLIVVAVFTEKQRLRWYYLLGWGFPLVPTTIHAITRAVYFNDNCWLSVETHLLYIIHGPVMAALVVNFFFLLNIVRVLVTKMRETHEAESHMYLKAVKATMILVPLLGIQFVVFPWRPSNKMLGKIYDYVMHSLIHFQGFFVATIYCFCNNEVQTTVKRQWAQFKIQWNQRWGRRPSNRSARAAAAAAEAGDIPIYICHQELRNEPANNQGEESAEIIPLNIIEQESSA

T2: human amylin receptor (amylin 3(a) receptor: human calcitonin receptor co-expressed with RAMP-3) (human, UniProt P30988 25-474; O60896 24-148, limits assumed)
T2 sequence (looked up) 1: T1 sequence (looked up)
T2 sequence (looked up) 2: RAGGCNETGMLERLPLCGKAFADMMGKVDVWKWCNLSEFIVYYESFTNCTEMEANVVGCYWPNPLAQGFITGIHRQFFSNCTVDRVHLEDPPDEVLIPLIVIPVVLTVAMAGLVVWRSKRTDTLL

B1: N^ε1-[(4S)-4-carboxy-4-(19-carboxynonadecanoylamino)butanoyl]-[Glu14,Arg17,Pro21,Pro27,Arg35]-h-amylin (peptide)
peptide: K([γGlu-C20 diacid])CNTATCATQRLAEFLRHSSPNFGAIPSSTNVGSRTY-NH2
modifications: disulfide 2-7; N-terminus assumed
SMILES: CC[C@H](C)[C@H](NC(=O)[C@H](C)NC(=O)CNC(=O)[C@H](Cc1ccccc1)NC(=O)[C@H](CC(N)=O)NC(=O)[C@@H]1CCCN1C(=O)[C@H](CO)NC(=O)[C@H](CO)NC(=O)[C@H](Cc1c[nH]cn1)NC(=O)[C@H](CCCNC(=N)N)NC(=O)[C@H](CC(C)C)NC(=O)[C@H](Cc1ccccc1)NC(=O)[C@H](CCC(=O)O)NC(=O)[C@H](C)NC(=O)[C@H](CC(C)C)NC(=O)[C@H](CCCNC(=N)N)NC(=O)[C@H](CCC(N)=O)NC(=O)[C@@H](NC(=O)[C@H](C)NC(=O)[C@@H]1CSSC[C@H](NC(=O)[C@@H](N)CCCCNC(=O)CC[C@H](NC(=O)CCCCCCCCCCCCCCCCCCC(=O)O)C(=O)O)C(=O)N[C@@H](CC(N)=O)C(=O)N[C@@H]([C@@H](C)O)C(=O)N[C@@H](C)C(=O)N[C@@H]([C@@H](C)O)C(=O)N1)[C@@H](C)O)C(=O)N1CCC[C@H]1C(=O)N[C@@H](CO)C(=O)N[C@@H](CO)C(=O)N[C@H](C(=O)N[C@@H](CC(N)=O)C(=O)N[C@H](C(=O)NCC(=O)N[C@@H](CO)C(=O)N[C@@H](CCCNC(=N)N)C(=O)N[C@H](C(=O)N[C@@H](Cc1ccc(O)cc1)C(N)=O)[C@@H](C)O)C(C)C)[C@@H](C)O
notes: also called compound 51
B2: N^ε21-[(4S)-4-carboxy-4-[[(4S)-4-carboxy-4-(19-carboxynonadecanoylamino)butanoyl]amino]butanoyl]-[Asp14,Arg17,Lys21,Pro27,Asp35]-h-amylin (peptide)
peptide: KCNTATCATQRLADFLRHSSK([γGlu-γGlu-C20 diacid])NFGAIPSSTNVGSDTY-NH2
modifications: disulfide 2-7; N-terminus assumed
SMILES: CC[C@H](C)[C@H](NC(=O)[C@H](C)NC(=O)CNC(=O)[C@H](Cc1ccccc1)NC(=O)[C@H](CC(N)=O)NC(=O)[C@H](CCCCNC(=O)CC[C@H](NC(=O)CC[C@H](NC(=O)CCCCCCCCCCCCCCCCCCC(=O)O)C(=O)O)C(=O)O)NC(=O)[C@H](CO)NC(=O)[C@H](CO)NC(=O)[C@H](Cc1c[nH]cn1)NC(=O)[C@H](CCCNC(=N)N)NC(=O)[C@H](CC(C)C)NC(=O)[C@H](Cc1ccccc1)NC(=O)[C@H](CC(=O)O)NC(=O)[C@H](C)NC(=O)[C@H](CC(C)C)NC(=O)[C@H](CCCNC(=N)N)NC(=O)[C@H](CCC(N)=O)NC(=O)[C@@H](NC(=O)[C@H](C)NC(=O)[C@@H]1CSSC[C@H](NC(=O)[C@@H](N)CCCCN)C(=O)N[C@@H](CC(N)=O)C(=O)N[C@@H]([C@@H](C)O)C(=O)N[C@@H](C)C(=O)N[C@@H]([C@@H](C)O)C(=O)N1)[C@@H](C)O)C(=O)N1CCC[C@H]1C(=O)N[C@@H](CO)C(=O)N[C@@H](CO)C(=O)N[C@H](C(=O)N[C@@H](CC(N)=O)C(=O)N[C@H](C(=O)NCC(=O)N[C@@H](CO)C(=O)N[C@@H](CC(=O)O)C(=O)N[C@H](C(=O)N[C@@H](Cc1ccc(O)cc1)C(N)=O)[C@@H](C)O)C(C)C)[C@@H](C)O
notes: also called compound 59
B3: N^ε1-[(4S)-4-carboxy-4-(19-carboxynonadecanoylamino)butanoyl]-[His14,Arg17,Pro21,Pro27,His35]-h-amylin (peptide)
peptide: K([γGlu-C20 diacid])CNTATCATQRLAHFLRHSSPNFGAIPSSTNVGSHTY-NH2
modifications: disulfide 2-7; N-terminus assumed
SMILES: CC[C@H](C)[C@H](NC(=O)[C@H](C)NC(=O)CNC(=O)[C@H](Cc1ccccc1)NC(=O)[C@H](CC(N)=O)NC(=O)[C@@H]1CCCN1C(=O)[C@H](CO)NC(=O)[C@H](CO)NC(=O)[C@H](Cc1c[nH]cn1)NC(=O)[C@H](CCCNC(=N)N)NC(=O)[C@H](CC(C)C)NC(=O)[C@H](Cc1ccccc1)NC(=O)[C@H](Cc1c[nH]cn1)NC(=O)[C@H](C)NC(=O)[C@H](CC(C)C)NC(=O)[C@H](CCCNC(=N)N)NC(=O)[C@H](CCC(N)=O)NC(=O)[C@@H](NC(=O)[C@H](C)NC(=O)[C@@H]1CSSC[C@H](NC(=O)[C@@H](N)CCCCNC(=O)CC[C@H](NC(=O)CCCCCCCCCCCCCCCCCCC(=O)O)C(=O)O)C(=O)N[C@@H](CC(N)=O)C(=O)N[C@@H]([C@@H](C)O)C(=O)N[C@@H](C)C(=O)N[C@@H]([C@@H](C)O)C(=O)N1)[C@@H](C)O)C(=O)N1CCC[C@H]1C(=O)N[C@@H](CO)C(=O)N[C@@H](CO)C(=O)N[C@H](C(=O)N[C@@H](CC(N)=O)C(=O)N[C@H](C(=O)NCC(=O)N[C@@H](CO)C(=O)N[C@@H](Cc1c[nH]cn1)C(=O)N[C@H](C(=O)N[C@@H](Cc1ccc(O)cc1)C(N)=O)[C@@H](C)O)C(C)C)[C@@H](C)O
notes: also called compound 66
B4: N^ε1-[(4S)-4-carboxy-4-(19-carboxynonadecanoylamino)butanoyl]-[His14,Arg17,Pro21,Pro27]-h-amylin (peptide)
peptide: K([γGlu-C20 diacid])CNTATCATQRLAHFLRHSSPNFGAIPSSTNVGSNTY-NH2
modifications: disulfide 2-7; N-terminus assumed
SMILES: CC[C@H](C)[C@H](NC(=O)[C@H](C)NC(=O)CNC(=O)[C@H](Cc1ccccc1)NC(=O)[C@H](CC(N)=O)NC(=O)[C@@H]1CCCN1C(=O)[C@H](CO)NC(=O)[C@H](CO)NC(=O)[C@H](Cc1c[nH]cn1)NC(=O)[C@H](CCCNC(=N)N)NC(=O)[C@H](CC(C)C)NC(=O)[C@H](Cc1ccccc1)NC(=O)[C@H](Cc1c[nH]cn1)NC(=O)[C@H](C)NC(=O)[C@H](CC(C)C)NC(=O)[C@H](CCCNC(=N)N)NC(=O)[C@H](CCC(N)=O)NC(=O)[C@@H](NC(=O)[C@H](C)NC(=O)[C@@H]1CSSC[C@H](NC(=O)[C@@H](N)CCCCNC(=O)CC[C@H](NC(=O)CCCCCCCCCCCCCCCCCCC(=O)O)C(=O)O)C(=O)N[C@@H](CC(N)=O)C(=O)N[C@@H]([C@@H](C)O)C(=O)N[C@@H](C)C(=O)N[C@@H]([C@@H](C)O)C(=O)N1)[C@@H](C)O)C(=O)N1CCC[C@H]1C(=O)N[C@@H](CO)C(=O)N[C@@H](CO)C(=O)N[C@H](C(=O)N[C@@H](CC(N)=O)C(=O)N[C@H](C(=O)NCC(=O)N[C@@H](CO)C(=O)N[C@@H](CC(N)=O)C(=O)N[C@H](C(=O)N[C@@H](Cc1ccc(O)cc1)C(N)=O)[C@@H](C)O)C(C)C)[C@@H](C)O
notes: also called compound 70
B5: N^ε1-[(4S)-4-carboxy-4-(19-carboxynonadecanoylamino)butanoyl]-[His14,Arg17,Pro21,Pro27,Pro31]-h-amylin (peptide)
peptide: K([γGlu-C20 diacid])CNTATCATQRLAHFLRHSSPNFGAIPSSTPVGSNTY-NH2
modifications: disulfide 2-7; N-terminus assumed
SMILES: CC[C@H](C)[C@H](NC(=O)[C@H](C)NC(=O)CNC(=O)[C@H](Cc1ccccc1)NC(=O)[C@H](CC(N)=O)NC(=O)[C@@H]1CCCN1C(=O)[C@H](CO)NC(=O)[C@H](CO)NC(=O)[C@H](Cc1c[nH]cn1)NC(=O)[C@H](CCCNC(=N)N)NC(=O)[C@H](CC(C)C)NC(=O)[C@H](Cc1ccccc1)NC(=O)[C@H](Cc1c[nH]cn1)NC(=O)[C@H](C)NC(=O)[C@H](CC(C)C)NC(=O)[C@H](CCCNC(=N)N)NC(=O)[C@H](CCC(N)=O)NC(=O)[C@@H](NC(=O)[C@H](C)NC(=O)[C@@H]1CSSC[C@H](NC(=O)[C@@H](N)CCCCNC(=O)CC[C@H](NC(=O)CCCCCCCCCCCCCCCCCCC(=O)O)C(=O)O)C(=O)N[C@@H](CC(N)=O)C(=O)N[C@@H]([C@@H](C)O)C(=O)N[C@@H](C)C(=O)N[C@@H]([C@@H](C)O)C(=O)N1)[C@@H](C)O)C(=O)N1CCC[C@H]1C(=O)N[C@@H](CO)C(=O)N[C@@H](CO)C(=O)N[C@H](C(=O)N1CCC[C@H]1C(=O)N[C@H](C(=O)NCC(=O)N[C@@H](CO)C(=O)N[C@@H](CC(N)=O)C(=O)N[C@H](C(=O)N[C@@H](Cc1ccc(O)cc1)C(N)=O)[C@@H](C)O)C(C)C)[C@@H](C)O
notes: also called compound 62
B6: N^ε1-[2-[2-[2-(19-carboxynonadecanoylamino)ethoxy]ethoxy]acetyl]-[Arg17,Pro21,Pro27]-h-amylin (peptide)
peptide: K([AEEA-C20 diacid])CNTATCATQRLANFLRHSSPNFGAIPSSTNVGSNTY-NH2
modifications: disulfide 2-7; N-terminus assumed
SMILES: CC[C@H](C)[C@H](NC(=O)[C@H](C)NC(=O)CNC(=O)[C@H](Cc1ccccc1)NC(=O)[C@H](CC(N)=O)NC(=O)[C@@H]1CCCN1C(=O)[C@H](CO)NC(=O)[C@H](CO)NC(=O)[C@H](Cc1c[nH]cn1)NC(=O)[C@H](CCCNC(=N)N)NC(=O)[C@H](CC(C)C)NC(=O)[C@H](Cc1ccccc1)NC(=O)[C@H](CC(N)=O)NC(=O)[C@H](C)NC(=O)[C@H](CC(C)C)NC(=O)[C@H](CCCNC(=N)N)NC(=O)[C@H](CCC(N)=O)NC(=O)[C@@H](NC(=O)[C@H](C)NC(=O)[C@@H]1CSSC[C@H](NC(=O)[C@@H](N)CCCCNC(=O)COCCOCCNC(=O)CCCCCCCCCCCCCCCCCCC(=O)O)C(=O)N[C@@H](CC(N)=O)C(=O)N[C@@H]([C@@H](C)O)C(=O)N[C@@H](C)C(=O)N[C@@H]([C@@H](C)O)C(=O)N1)[C@@H](C)O)C(=O)N1CCC[C@H]1C(=O)N[C@@H](CO)C(=O)N[C@@H](CO)C(=O)N[C@H](C(=O)N[C@@H](CC(N)=O)C(=O)N[C@H](C(=O)NCC(=O)N[C@@H](CO)C(=O)N[C@@H](CC(N)=O)C(=O)N[C@H](C(=O)N[C@@H](Cc1ccc(O)cc1)C(N)=O)[C@@H](C)O)C(C)C)[C@@H](C)O
notes: also called compound 43

biological target: T1, human calcitonin receptor; assay: cell-based or functional assay

| Ratio hCT/hAmylin funct. (hCTR EC50 against hAmylin-R EC50) | hCTR funct. EC50 [nM] | Binder |
| --- | --- | --- |
| 14 | 5.22 | B1 |
| 5 | 1.95 | B2 |
| 20.1 | 0.542 | B3 |
| 17.9 | 0.715 | B4 |
| 12.3 | 0.539 | B5 |
| 6.5 | 0.92 | B6 |

biological target: T2, human amylin receptor (amylin 3(a) …); assay: cell-based or functional assay

| hAmylin-R funct. EC50 [nM] | Binder |
| --- | --- |
| 0.372 | B1 |
| 0.389 | B2 |
| 0.027 | B3 |
| 0.04 | B4 |
| 0.044 | B5 |
| 0.141 | B6 |
